The target in assay [1] is T1, CD72-Fc (CD72 extracellular domain, aa 117-359, fused to a biotinylated human Fc domain) (human, UniProt P21854 117-359, biotinylated (on the Fc domain; site not stated)).
T1 construct: range 117-359; Expressed in mammalian cells; also called CD72-ECD-Fc protein; recombinant CD72-Fc fusion protein; not shown: human Fc domain
T1 sequence (looked up): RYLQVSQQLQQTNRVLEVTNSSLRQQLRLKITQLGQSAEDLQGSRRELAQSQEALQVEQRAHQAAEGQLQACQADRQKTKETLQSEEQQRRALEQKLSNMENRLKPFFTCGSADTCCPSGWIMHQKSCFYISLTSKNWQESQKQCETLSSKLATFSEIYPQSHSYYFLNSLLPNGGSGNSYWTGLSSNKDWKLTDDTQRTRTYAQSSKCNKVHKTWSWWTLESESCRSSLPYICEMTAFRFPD
Description: on-yeast affinity measurement, flow cytometry, titration of CD72-Fc. An excerpt: FIG. 4a-e: Isolation of high-affinity CD72 nanobodies with yeast display (a) Schematic of workflow for in vitro anti-CD72 nanobody selection using yeast display. (b) Structure models of the recombinant Fc-fusion proteins used to perform yeast display selections. The Fc protein on the left was used to negatively select potential off-target nanobodies while the CD72-Fc protein (CD72 extracellular domain fused to a human Fc domain) was used to perform positive selection steps to isolate CD72-specific nanobodies (c) Schematic displaying the nanobody yeast display selection strategy for each MACS and FACS selection round to enrich for CD72-specific nanobody binders. Two rounds of MACS followed by four rounds of FACS with decreasing concentration of CD72 antigen produced high affinity anti-CD72 nanobodies. (d) On-yeast binding of recombinant CD72-Fc fusion protein for CD72-selected nanobodies Nb.B5 (nanobody sequence SEQ ID NO:2) and Nb.C2 (nanobody sequence SEQ ID NO:1) expressed on yeast to determine estimated binding affinities. Kd determined by curve fitting using non-linear least squares regression. (e) Flow cytometry plots of yeast clone Nb.C2 binding to 10 nM CD72-ECD-Fc protein (left) or 10 nM Fc protein (right). […]

The target in assay [2] is T2, CD72-Fc (CD72 extracellular domain, aa 117-359, fused to a biotinylated human Fc domain) (human, UniProt P21854 117-359, biotinylated (on the Fc domain; site not stated)).
T2 chain: T1 sequence (looked up)
Put plainly: on-yeast binding (yeast display flow cytometry).

Data on two molecules can be found in patent publication US20220251217A1 (University of California, published 2022).

B1: Nb.C2 (VHH)
VHH: QVQLQESGGGLVQAGGSLRLSCAASGTIFDWYSMGWYRQAPGKERELVAGIDTGANTYYADSVKGRFTISRDNAKNTVYLQMNSLKPEDTAVYYCAAHDDGDPWHVYWGQGTQVTVSS
notes: also called yeast clone Nb.C2
Consider B1, for which the binding result in assay [1] is on record as “binds”. Besides, the dissociation constant Kd in assay [2] came to 1.5 nM.

B2: Nb.B5 (VHH)
VHH: QVQLQESGGGLVQAGGSLRLSCAASGTIFPVDYMGWYRQAPGKERELVAGINYGSNTYYADSVKGRFTISRDNAKNTVYLQMNSLKPEDTAVYYCAAWQPEGYAVDFYHPYWGQGTQVTVSS
Consider B2, for which the binding result in assay [1] is on record as “binds”. This molecule also returned a Kd in assay [2] of 1 nM.
